According to article PMC7956722 (Molecules, 2021):
Where two headings read alike, the source gives them in different places. Non-standard residues stand in square brackets, D forms with d. Residues, ends and D or L forms follow the SMILES beside them. dPhe(4-Cl) = N[C@H](Cc1ccc(Cl)cc1)C(=O)O; d2Nal = N[C@H](Cc1ccc2ccccc2c1)C(=O)O; dCit = NC(=O)NCCC[C@@H](N)C(=O)O; d3Pal = N[C@H](Cc1cccnc1)C(=O)O

What was measured:
[1] = biological target: T1, LHRH receptors (membrane receptors of human bladder cancer cells) (Homo sapiens, UniProt P30968); experiment: Ligand competition assay: displacement of [125I][D-Trp6]LHRH by unlabeled peptides; assay type: binding; settings: for displacement of [125I][D-Trp6]LHRH by unrelated peptides: membrane fractions of human bladder cancer specimens, increasing concentrations, mean of duplicate or triplicate determinations
T1 construct: membrane homogenates of bladder cancer specimens containing 60–150 µg protein were incubated in duplicate; from tissue; host or cells: surgically resected human bladder cancer (transitional cell carcinoma) tissue, crude membrane fractions
T1 sequence (P30968 1-328): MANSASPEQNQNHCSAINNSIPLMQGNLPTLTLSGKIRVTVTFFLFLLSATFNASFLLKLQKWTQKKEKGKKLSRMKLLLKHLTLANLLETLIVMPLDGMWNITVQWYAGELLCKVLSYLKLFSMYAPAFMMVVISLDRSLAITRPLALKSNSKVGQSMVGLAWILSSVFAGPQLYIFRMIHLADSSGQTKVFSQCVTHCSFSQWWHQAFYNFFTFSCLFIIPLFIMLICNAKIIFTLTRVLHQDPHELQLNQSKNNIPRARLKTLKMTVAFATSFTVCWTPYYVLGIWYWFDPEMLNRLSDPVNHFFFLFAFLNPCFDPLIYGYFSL
Description: Analysis of the typical displacement of radiolabeled [D-Trp^6] […] Biochemical parameters essential to establish the identity of specific binding sites were also determined.
Each point represents mean of duplicate or triplicate determinations.
The assay was performed as described earlier. […] At the end of the incubation, 125 µL aliquots of suspension were transferred onto the top of 1 mL of ice-cold binding buffer containing 1.5% BSA in microcentrifuge tubes. The tubes were centrifuged at 12,000× g for 3 min at 4 °C. Supernatants were aspirated and the pellet was counted in a gamma counter. Protein concentration was determined by the method of Bradford using a Bio-Rad protein assay kit (Bio-Rad Laboratories, Hercules, CA, USA). The final binding affinities were expressed as IC50 values and were calculated by using the LIGAND-PC computerized curve-fitting program of Munson and Rodbard.

[2] = tested on: bladder cancer in nude mice; settings: Szepeshazi et al., cited from earlier work
Text: (§1) Our findings are in agreement with the results of Bahk et al. (2008). […] However, there is no information about the role of peptide receptors in bladder carcinogenesis. The signaling pathways have the potential to be an important area of bladder cancer research, leading to the development of effective therapeutic approaches.

various human cancers = settings: trials completed or terminated; cited from earlier work
Text: as §1

[3] = tested on: LHRH-receptor-positive models of human ovarian, mammary, endometrial, and prostatic cancers; settings: cited from earlier work
[4] = tested on: metastatic bladder cancer; settings: first-line therapy, cisplatin-based chemotherapy; cited from earlier work
Text: More than 90% of urothelial tumors originate from the urinary bladder, 8% from the renal pelvis, and 2% from the ureter and urethra. Histologically, the majority (around 90%) of bladder cancer is described as the type of TCC and the rest are squamous cell carcinoma, adenocarcinoma, and rarely, small cell carcinoma. Despite advancements in surgical techniques and chemotherapy, the overall survival in metastatic bladder cancer has not improved over the last 20 years. The first-line therapy is cisplatin-based chemotherapy with the response rate of approximately 50% [[4],[31] ...

bladder carcinogenesis = tested on: bladder carcinogenesis; set-up: method as in PMID 8551710; settings: cited from earlier work
Description: The effects of the androgen regulation system and LHRH agonist on bladder carcinogenesis have been investigated in animals [10].

AN-152 = biological target: T2, AN-152 (Homo sapiens, pGlu1, D-Lys6 linked through glutaric acid spacer to doxorubicin, C-terminal amide); experiment: radioligand competition
T2 chain: QHWSYKLRPG

[D-Lys6]LHRH = biological target: T3, [D-Lys6]LHRH (Homo sapiens, pGlu1, D-Lys6, C-terminal amide); experiment: radioligand competition
T3 chain: QHWSYKLRPG

[125I][D-Trp6]LHRH [5] = biological target: T4, [125I][D-Trp6]LHRH (Homo sapiens, pGlu1, D-Trp6, C-terminal amide, 125I); experiment: radioligand competition (patient 3)
T4 chain: QHWSYWLRPG

[125I][D-Trp6]LHRH [6] = biological target: T4, [125I][D-Trp6]LHRH; experiment: radioligand competition (patient 7)
[125I][D-Trp6]LHRH [7] = biological target: T4, [125I][D-Trp6]LHRH; experiment: radioligand competition (patient 8)
[125I][D-Trp6]LHRH [8] = biological target: T4, [125I][D-Trp6]LHRH; experiment: radioligand competition (patient 6)
[125I][D-Trp6]LHRH [9] = biological target: T4, [125I][D-Trp6]LHRH; experiment: radioligand competition (patient 12)
[125I][D-Trp6]LHRH [10] = biological target: T4, [125I][D-Trp6]LHRH; experiment: radioligand competition (patient 18)
[125I][D-Trp6]LHRH [11] = biological target: T4, [125I][D-Trp6]LHRH; experiment: radioligand competition (patient 14)
[125I][D-Trp6]LHRH [12] = biological target: T4, [125I][D-Trp6]LHRH; experiment: radioligand competition (patient 10)
[125I][D-Trp6]LHRH [13] = biological target: T4, [125I][D-Trp6]LHRH; experiment: radioligand competition (patient 19)
[125I][D-Trp6]LHRH [14] = biological target: T4, [125I][D-Trp6]LHRH; experiment: radioligand competition (patient 22)
[125I][D-Trp6]LHRH [15] = biological target: T4, [125I][D-Trp6]LHRH; experiment: radioligand competition, Scatchard (mean of 10 bladder cancer specimens)

COc1cccc2c1C(=O)c1c(O)c3c(c(O)c1C2=O)C[C@@](O)(C(=O)COC(=O)CCCC(=O)NCCCC[C@@H](NC(=O)[C@H](Cc1ccc(O)cc1)NC(=O)[C@H](CO)NC(=O)[C@H](Cc1c[nH]c2ccccc12)NC(=O)[C@H](Cc1c[nH]cn1)NC(=O)[C@@H]1CCC(=O)N1)C(=O)N[C@@H](CC(C)C)C(=O)N[C@@H](CCCNC(=N)N)C(=O)N1CCC[C@H]1C(=O)NCC(N)=O)C[C@@H]3O[C@H]1C[C@H](N)[C@H](O)[C@H](C)O1 [AN-152]
binding affinity relative to free carrier [D-Lys6]LHRH (in words) ([1]; compared with free peptide carrier [D-Lys6]LHRH, human bladder cancer membranes): only slightly lower binding affinity to specific LHRH receptors than the free peptide carrier | binding to LHRH receptors (in words) ([1]; displacement of [125I][D-Trp6]LHRH, human bladder cancer membranes): could effectively bind to LHRH receptors at low nanomolar concentration | effect compared with DOX ([2]; bladder cancer in nude mice): greater effects than DOX | growth inhibition of bladder cancer ([2]; nude mice): inhibits powerfully the growth of the bladder cancer in nude mice | toxicity compared with DOX ([2]; nude mice): lesser toxicity | outcome of clinical trials (various human cancers): some of these studies did not achieve their primary endpoint | inhibition of tumor growth in vivo versus respective radicals ([3]; human ovarian, mammary, endometrial, prostatic cancers xenografted into nude mice): much more effective in vivo than their respective radicals in inhibiting tumor growth | toxicity versus respective radicals ([3]; nude mice): less toxic

CC(=O)N[C@H](Cc1ccc2ccccc2c1)C(=O)N[C@H](Cc1ccc(Cl)cc1)C(=O)N[C@H](Cc1cccnc1)C(=O)N[C@@H](CO)C(=O)N[C@@H](Cc1ccc(O)cc1)C(=O)N[C@H](CCCNC(N)=O)C(=O)N[C@@H](CC(C)C)C(=O)N[C@@H](CCCNC(=N)N)C(=O)N1CCC[C@H]1C(=O)N[C@H](C)C(N)=O [Cetrorelix] (Ac-[d2Nal][dPhe(4-Cl)][d3Pal]SY[dCit]LRP[dA]-NH2)
IC50 [1]: 0.86 nM

CC(C)C[C@H](NC(=O)[C@@H](CCCCN)NC(=O)[C@H](Cc1ccc(O)cc1)NC(=O)[C@H](CO)NC(=O)[C@H](Cc1c[nH]c2ccccc12)NC(=O)[C@H](Cc1cnc[nH]1)NC(=O)[C@@H]1CCC(=O)N1)C(=O)N[C@@H](CCCNC(=N)N)C(=O)N1CCC[C@H]1C(=O)NCC(N)=O [[D-Lys^6]LHRH]
IC50 ([1]; read-out: Receptor binding potency (IC50)): 0.98 nM

N.N.[Cl][Pt][Cl] [cisplatin]
response rate [4]: approximately 50%

CC(C)C(=O)Nc1ccc([N+](=O)[O-])c(C(F)(F)F)c1 [flutamide]
effect on bladder carcinogenesis (bladder carcinogenesis): suppressed the LHRH-induced promotion of carcinogenesis

epidermal growth factor: unrelated peptide
displacement of [125I][D-Trp6]LHRH by unrelated peptides [1]: did not displace the radioligand

growth hormone-releasing hormone (GHRH): unrelated peptide
displacement of [125I][D-Trp6]LHRH by unrelated peptides [1]: did not displace the radioligand

human growth hormone (hGH): unrelated peptide
displacement of [125I][D-Trp6]LHRH by unrelated peptides [1]: did not displace the radioligand

somatostatin: unrelated peptide
displacement of [125I][D-Trp6]LHRH by unrelated peptides [1]: did not displace the radioligand

vasoactive intestinal peptide (VIP): unrelated peptide
displacement of [125I][D-Trp6]LHRH by unrelated peptides [1]: did not displace the radioligand

B1: LHRH receptor type I (protein)
chain: MANSASPEQNQNHCSAINNSIPLMQGNLPTLTLSGKIRVTVTFFLFLLSATFNASFLLKLQKWTQKKEKGKKLSRMKLLLKHLTLANLLETLIVMPLDGMWNITVQWYAGELLCKVLSYLKLFSMYAPAFMMVVISLDRSLAITRPLALKSNSKVGQSMVGLAWILSSVFAGPQLYIFRMIHLADSSGQTKVFSQCVTHCSFSQWWHQAFYNFFTFSCLFIIPLFIMLICNAKIIFTLTRVLHQDPHELQLNQSKNNIPRARLKTLKMTVAFATSFTVCWTPYYVLGIWYWFDPEMLNRLSDPVNHFFFLFAFLNPCFDPLIYGYFSL
IC50 (AN-152): 1.39 nM | IC50 ([D-Lys6]LHRH): 0.98 nM | Kd ([125I][D-Trp6]LHRH [5]): 5.76 nM | Kd ([125I][D-Trp6]LHRH [6]): 4.94 nM | Kd ([125I][D-Trp6]LHRH [7]): 6.26 nM | Kd ([125I][D-Trp6]LHRH [8]): 6.85 nM | Kd ([125I][D-Trp6]LHRH [9]): 3.61 nM | Kd ([125I][D-Trp6]LHRH [10]): 4.38 nM | Kd ([125I][D-Trp6]LHRH [11]): 4.92 nM | Kd ([125I][D-Trp6]LHRH [12]): 5.02 nM | Kd ([125I][D-Trp6]LHRH [13]): 3.83 nM | Kd ([125I][D-Trp6]LHRH [14]): 4.31 nM | Kd ([125I][D-Trp6]LHRH [15]): 4.98 nM
